Measurements taken from US20100075326A1.
Read-outs that look alike come from different tables or passages of the source.

Key:
[1] = molecular target: T1, base coil K4 (four heptad repeats), YS2H bait fused to Aga2 with C-terminal FLAG tag (yeast)
[2] = molecular target: T1, base coil K4 (four heptad repeats), …; test: predicted from YS2H (flow cytometry of Myc and FLAG tags, Langmuir equation)
[3] = molecular target: T2, base coil K3 (three heptad repeats), YS2H bait fused to Aga2 with C-terminal FLAG tag (yeast)
[4] = molecular target: T3, base coil K5 (five heptad repeats), YS2H bait fused to Aga2 with C-terminal FLAG tag (yeast)
[5] = molecular target: T2, base coil K3 (three heptad repeats), …; test: predicted from YS2H (flow cytometry of Myc and FLAG tags, Langmuir equation)
[6] = molecular target: T3, base coil K5 (five heptad repeats), …; test: as above
[7] = molecular target: T2, base coil K3 (three heptad repeats), …; remark: listed apart in the source
[8] = molecular target: NeGFP (partner of the row 'E3' in Figure 2d, base coil deleted, cytosolic)
[9] = molecular target: T2, base coil K3 (three heptad repeats), …; remark: listed apart in the source
[10] = molecular target: T2, base coil K3 (three heptad repeats), …; test: YS2H, Kn-Flag : En-Myc: bait on the yeast surface as Aga2 fusion, secreted prey captured by it; flow cytometry with anti-Myc antibody, MFI of the whole induced population; Flag (bait) MFI of this clone 70; K3-only control Myc MFI 8

| Binder | MFI (anti-Myc) [1] | Kd [2] [nM] | MFI (anti-Myc) [3] | MFI (anti-Myc) [4] | Kd [5] [nM] | Kd [6] [nM] | MFI of complemented split eGFP in the cytosol (K3-NeGFP : E3-CeGFP, no signal sequences) [7] | MFI of complemented split eGFP in the cytosol, control row 'E3' (NeGFP with the base coil deleted : E3-CeGFP) [8] | MFI of complemented split eGFP, secretory pathway (K3-NeGFP-Flag : E3-CeGFP-Myc); Flag MFI 67 [9] | MFI (anti-Myc) [10] |
| --- | --- | --- | --- | --- | --- | --- | --- | --- | --- | --- |
| VSALEKEVSALEKEVSALEKEVSALEKEEQKLISEEDL (modifications not checked) [acid coil E4 (four heptad repeats), secreted YS2H prey with C-terminal Myc tag] | 68 | 151 |  |  |  |  |  |  |  |  |
| VSALEKEVSALEKEVSALEKEVSALEKEVSALEKEEQKLISEEDL (modifications not checked) [acid coil E5 (five heptad repeats), secreted YS2H prey with C-terminal Myc tag] | 653 | 18.3 | 10 | 1200 | 1290 | 0.49 |  |  |  |  |
| VSALEKEVSALEKEVSALEKEEQKLISEEDL (modifications not checked) [acid coil E3 (three heptad repeats), secreted YS2H prey with C-terminal Myc tag] |  |  |  |  | 1270 |  | 216 | 7 | 20 | 8 |
